Results taken from IntAct's records for PubMed 29610859.

Biological target: ubql1_human UBQLN1 (UniProt Q9UMX0)
Sequence (Q9UMX0 whole entry): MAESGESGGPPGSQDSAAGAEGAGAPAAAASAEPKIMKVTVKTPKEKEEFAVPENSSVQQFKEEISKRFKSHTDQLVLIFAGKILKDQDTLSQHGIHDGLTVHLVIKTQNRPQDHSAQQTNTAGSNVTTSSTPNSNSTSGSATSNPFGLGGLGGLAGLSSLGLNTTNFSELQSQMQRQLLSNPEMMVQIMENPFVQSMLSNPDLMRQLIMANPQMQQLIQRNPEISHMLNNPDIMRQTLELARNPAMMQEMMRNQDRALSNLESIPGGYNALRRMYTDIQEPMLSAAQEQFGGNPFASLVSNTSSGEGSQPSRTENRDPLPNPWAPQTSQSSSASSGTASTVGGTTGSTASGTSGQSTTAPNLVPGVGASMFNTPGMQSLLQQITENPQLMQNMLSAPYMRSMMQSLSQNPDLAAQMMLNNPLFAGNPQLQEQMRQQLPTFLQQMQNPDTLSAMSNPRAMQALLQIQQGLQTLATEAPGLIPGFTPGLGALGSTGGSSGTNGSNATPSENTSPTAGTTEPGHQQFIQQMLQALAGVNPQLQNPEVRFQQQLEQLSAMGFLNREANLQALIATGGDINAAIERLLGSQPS

effect of a mutation on the interaction: with no effect
Substance: Cytochrome c oxidase subunit 1 (Homo sapiens) (from UniProt P00395) V83I
